# Experimental data: the RNAGym collection of RNA variant scans (doi:10.1073/pnas.2313332121)
# Variants at the floor of the assay were thinned out.
# B1: TPR 5TU (parent)
# chain: GGAUCUUCUCGAUCUAACAAAAAAGACAAAUCUGCCACAAAGCUUGAGAGCAUCUUCGGAUGCAGAGGCGGCAGCCUUCGGUGGCGCGAUAGCGCCAACGUUCUCAACUAUGACACGCAAAACGCGUGCUCCGUUGAAUGGAGUUUAUCAUG
# Variants of: B1
# Assay: polymerase ribozyme fitness, log enrichment relative to wild type (log ratio); higher = more active; in vitro selection for triplet polymerase activity
# Method in brief: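 Genotype fitness is the logarithm of its enrichment divided by wild-type enrichment, using inverse-variance-weighted averages of replicates. That logarithm is base 2. Enrichment was measured by Illumina sequencing of input and output libraries from one triplicate in vitro selection round, with frozen incubation at −7 °C, on PCR-built, transcribed mutant libraries of each subunit of a heterodimeric triplet polymerase ribozyme, retaining genotypes with ≥10 input reads and ≥1 read per output.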
row,Variant,polymerase ribozyme fitness (log ratio)
1,C8U G81U C95U,≤ -4.2
2,C8U A28U G58A G74C U127G G133C A142U C149G,≤ -4.2
3,U9C A37G G42C A73U G92C C103U,≤ -4.2
4,C8A C27U U56C U111C A138G,≤ -4.2
5,C8G U82A C85A A91U C96U G117C,≤ -4.2
6,C8G G42C G50C A91C C93A,≤ -4.2
7,C8G A17C C18G A41C A52U G83A G140U,≤ -4.2
8,C8U U13C A22G C93U G126A,-1.08
9,C8A G58C U82A A98G G136U,≤ -4.2
10,C8G C14A A39C G74U G143U,≤ -4.2
11,U9C A23U G58U A73U C79A G83C G86A A107G G141C,≤ -4.2
12,U9A C36A C72G G92A C129A A137U,≤ -4.2
13,U9C C38U C51U A52G G74C C85G G143C U145A,≤ -4.2
14,C8G A20C A73U C99G A106G G140A U144G A147C,≤ -4.2
15,C8G G25C U33C C93U G124C,≤ -4.2
16,U9A A39C U53G G92A G112C A113G C149G,≤ -4.2
17,C8U U33A A37C G50A A60U C72A G86A U90A A138G U151G,≤ -4.2
18,C8G C116G,-3.15
19,C8G A30G C35U G65U G94U U135C U144G,≤ -4.2
20,C8U C38G G92U C95U C99U U104A U145G,≤ -4.2
21,U9A C63U C69U C76U C93A A113U G136C,≤ -4.2

row,Variant,polymerase ribozyme fitness (log ratio)
1,U9C C14G,≤ -4.2
2,C8A G11A C63U G83C U130G G152C,≤ -4.2
3,C8G C125U G141C,≤ -4.2
4,C8U A16C U53A C54A G71C G141C U148C C149U,≤ -4.2
5,U9A A12G C14U A23U A40C C76G G86C U90C C118A C131G,≤ -4.2
6,U9C G25C U56A C93U C99G,≤ -4.2
7,U9A C93A,-3.87
8,U9C A47C A60G G84C C93A C105G A113U U127C,≤ -4.2
9,C8A C85U,-2.6
10,U9A C57G G84U,≤ -4.2
11,C8U A47G,-3.73
12,C8G C93U,-3.64
13,C8U A21G A41C G50A G65C G88A,≤ -4.2
14,C8A C32G A40U A52U A73U A91U,≤ -4.2
15,U9A U31G G58U A73U C123U U135A,≤ -4.2
16,C8G C35U C85G G88U U134A,≤ -4.2
17,C8U U55A,-2.51
18,U9A U15A G48C C51G G84A,≤ -4.2
19,C8G G92C,-3.1
20,C8G G84U,≤ -4.2
21,U9C A12U C27G G48A G74A G88A,≤ -4.2

row,Variant,polymerase ribozyme fitness (log ratio)
1,C8U C57U A60C A97U A115U,≤ -4.2
2,C8A G92C,-3.68
3,U9C A16U A19U U31A C35U A49U,≤ -4.2
4,C8U A24U A30U U90A G92C,≤ -4.2
5,C8A G50U,-3.79
6,U9C C76U,-2.74
7,C8G A12U G25A A28U A39C G58C G94U U144G,≤ -4.2
8,C8G U13C A16G A52G G83A U101G G126A,≤ -4.2
9,U9A G34A C57A C85A A91U,≤ -4.2
10,C8G A16U A20U C79U C85U A115C,≤ -4.2
11,C8U A66C C93U G124A,≤ -4.2
12,U9A A39U G48A G84U C99A G117U,≤ -4.2
13,U9C C35G A39U C103G,≤ -4.2
14,U9A U13G G42U U61A A91U A106G A142C,≤ -4.2
15,C8G G84U G100U C132U U144A,≤ -4.2
16,C8A U56A A60U C93A U109G A113U U139G U145C A147G,≤ -4.2
17,C8A C14G U53C G58A G62C C85G,≤ -4.2
18,C8U C54U U56C C85A G92C,≤ -4.2
19,U9A A16G U45A C57A C75G G83U G92A,≤ -4.2
20,C8U C43U G48C U55A G92C,≤ -4.2
21,C8G C18U C38U G50C C54U G65C C87U C99G,≤ -4.2

row,Variant,polymerase ribozyme fitness (log ratio)
1,U9A U15C G48A G50C C96A G133C,≤ -4.2
2,C8G A21C G94C C99A,≤ -4.2
3,C8G U13C A17U A29U C38U U44A G84U C87G G92A G140A,≤ -4.2
4,U9A G128C U139A,≤ -4.2
5,C8G A20G U44G G48U G84U G128U U144A,≤ -4.2
6,C8A U9C A30U C87U C95U C129A,≤ -4.2
7,U9C U15G C93A,≤ -4.2
8,C8U G81C,-3.94
9,C8G C35U A40U C95U C149A,≤ -4.2
10,C8A G48A G92C,≤ -4.2
11,C8A C27U U44G A49C C72G C79A G92A G143U,≤ -4.2
12,U9C G71A C95U U151C,≤ -4.2
13,U9A A17C A20C C54U U55G G58A G67A C116G G143A,≤ -4.2
14,U9C A22U U53G C79U,≤ -4.2
15,C8A G84A,-3.28
16,C8A C18U C35G C57U C76A G92U G117C U134A,≤ -4.2
17,C8A C93A,≤ -4.2
18,C8A C93U,-3.42
19,C8G C54U G59C G81U C96A U144C,≤ -4.2
20,U9C A17U A89G A122G,≤ -4.2
21,U9C A12G A21U G42U C51G U53A C96A,≤ -4.2
